By stoichiometry N is commonly meant the number of molecules, sites or subunits per partner or assembly.

Consider one molecule from paper PMC2408619.

For this experiment, the target named is T1, Bordetella bacteriophage major tropism determinant variant Mtd-P1 (Bordetella bacteriophage BPP-1), Q775D6.
T1 chain: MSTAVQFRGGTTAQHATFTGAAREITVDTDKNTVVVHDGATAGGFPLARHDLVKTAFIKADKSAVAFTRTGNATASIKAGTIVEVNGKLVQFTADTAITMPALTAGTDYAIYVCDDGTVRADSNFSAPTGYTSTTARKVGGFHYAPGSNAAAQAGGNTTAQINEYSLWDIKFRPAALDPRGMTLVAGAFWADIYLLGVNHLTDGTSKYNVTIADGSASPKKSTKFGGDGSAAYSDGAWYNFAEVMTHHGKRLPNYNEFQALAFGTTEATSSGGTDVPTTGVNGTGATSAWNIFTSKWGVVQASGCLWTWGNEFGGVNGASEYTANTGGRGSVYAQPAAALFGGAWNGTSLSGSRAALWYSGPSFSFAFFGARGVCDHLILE
Nature of the experiment: crystal structure; Mtd-P1·Prn-E complex formed with ~1.6-fold molar excess of Mtd-P1 trimers over His-tagged Prn-E, isolated by Ni2+-chelation and Superdex 200; crystals at 25 °C in 2 M NaCl, 100 mM Tris pH 8.5, 200 mM Li2SO4; 3.16 Å. To be noted: remark: other sources report otherwise.

B1: Bordetella bacteriophage major tropism determinant variant Mtd-P1, Q775D6 1-381 (natural protein)
chain: T1 chain
With B1, the stoichiometry N was 3.
